Results on three molecules are retold here after patent publication US5847083, “Modified p53 constructs which enhance DNA binding” (The Wistar Institute of Anatomy and Biology).

Holding throughout (conditions): chain copies: 4; label: 32P
One data set deals with p53 Ser249 (Homo sapiens, UniProt P04637 SEQ:1-393). The experiment in a line: EMSA; not activated by PAb421. How it is done:
(§1) For analysis of DNA binding activity, these proteins were incubated with ^32P-labeled oligonucleotides and subjected to electrophoresis as described [Halazonetis (1993a and 1993b) and Waterman (1995), both cited above]. […] CCC-GAACA-TGTCC-CAACA-TGTTG-GGG, each contain a p53 binding site, which is underlined. […] Oligonucleotide Egadd45has the sequence [SEQ ID NO: 31] ACA-GAACA-TGTCT-AAGCA-TGCTG-GGGA. Oligonucleotide TF3, which contains three tandem repeats of [SEQ ID NO: 32] […], is a non-specific DNA [Halazonetis et al, *EMBO J.*, 12:1021–1028 (1993)].

Data set [1] addresses T1, p53 Arg284 delta364-393 (Homo sapiens, UniProt P04637 SEQ:1-363). The data set is described as follows: EMSA; enhanced vs wild type. How it is done: as §1
(§2) Figure 4: FIG. 4 illustrates the effect of the Thr284 to Arg substitution on binding of wild-type p53 and tumor-derived p53 mutants to a high affinity DNA site, and to the sites in the p21^cip1 and gadd45 genes (oligonucleotides BC, Ep21 and Egadd45, respectively). Binding was assayed by gel retardation shift analysis on native electrophoretic gels. Only the region of the gel corresponding to the p53-DNA complexes is shown. The amino acids are abbreviated using the single letter code: Arg, R; Cys, C; Gln, Q; His, H; Lys, K.
(A gel shift assay detects complexes by their altered migration in electrophoresis.)

For data set [2], the target named is T1, p53 Arg284 delta364-393. The experiment in a line: EMSA; enhancement not noted on this site. How it is done:
as §1, §2

The target of a further data set is p53 delta364-393 (Homo sapiens, UniProt P04637 SEQ:1-363). The experiment in a line: EMSA. As for the experimental part:
as §1, §2

B1: oligonucleotide BC (dsDNA)
DNA 1: CCGGGCATGTCCGGGCATGTCCGGGCATGT
DNA 2: ACATGCCCGGACATGCCCGGACATGCCCGG
B1: the values for the binding result with p53 Ser249 and with p53 Arg284 delta364-393 [1] were “no binding” and “binds”, respectively.

B2: oligonucleotide Egadd45 (dsDNA)
DNA 1: ACAGAACATGTCTAAGCATGCTGGGGA
DNA 2: TCCCCAGCATGCTTAGACATGTTCTGT
Regarding B2, the binding result in the data set with p53 Arg284 delta364-393 [2] and with p53 delta364-393 was “binds” throughout.

B3: oligonucleotide Ep21 (dsDNA)
DNA 1: CCCGAACATGTCCCAACATGTTGGGG
DNA 2: CCCCAACATGTTGGGACATGTTCGGG
For the molecule B3, the binding result in the data set with p53 Arg284 delta364-393 [1] was “binds”.
